Experimental data: patent publication US20170252417A1 (MIT, published 2017)

Molecular target: mouse serum albumin (MSA) (mouse, UniProt P07724 25-608)
Assay: yeast surface display library on rcSso7d scaffold, selection for MSA binders

B1: M11.1.2 (designed binder)
chain: ATVKYTYRGEEKRVDISKIKWVNRWGQHLAFKYDKGGGAAGYGWVSEKDAPKELLQMLEKR
notes: Isolated from a yeast surface display library built on the rcSso7d scaffold; In the vaccines it was fused at its C-terminus to GGGS-His tag-GGGS-E7 long
B1: binds.

B2: M18.2.5 (designed binder)
chain: ATVKFTYRGEEKQVDISKIKWVVRLGQVIMFKYDEGGGASGYGRVSEKDAPKELLQMLEK
notes: as for B1
B2: binds.
